OD450 nm and MFI data for 7 molecules are collected here from patent US20220073608A1 (JIANGSU HUAIYU PHARMACEUTICAL, published 2022).

Experiment [1] addresses T1, hSEMA4D ECD-His (His-tagged human SEMA4D protein extracellular domain, Met22-Arg734) (human, UniProt Q92854 22-734).
T1 construct: Expressed in CHO-S cells, purified on Ni column; also called protein immunogen; immunogen A; not shown: His tag of the pCP vector
T1 sequence: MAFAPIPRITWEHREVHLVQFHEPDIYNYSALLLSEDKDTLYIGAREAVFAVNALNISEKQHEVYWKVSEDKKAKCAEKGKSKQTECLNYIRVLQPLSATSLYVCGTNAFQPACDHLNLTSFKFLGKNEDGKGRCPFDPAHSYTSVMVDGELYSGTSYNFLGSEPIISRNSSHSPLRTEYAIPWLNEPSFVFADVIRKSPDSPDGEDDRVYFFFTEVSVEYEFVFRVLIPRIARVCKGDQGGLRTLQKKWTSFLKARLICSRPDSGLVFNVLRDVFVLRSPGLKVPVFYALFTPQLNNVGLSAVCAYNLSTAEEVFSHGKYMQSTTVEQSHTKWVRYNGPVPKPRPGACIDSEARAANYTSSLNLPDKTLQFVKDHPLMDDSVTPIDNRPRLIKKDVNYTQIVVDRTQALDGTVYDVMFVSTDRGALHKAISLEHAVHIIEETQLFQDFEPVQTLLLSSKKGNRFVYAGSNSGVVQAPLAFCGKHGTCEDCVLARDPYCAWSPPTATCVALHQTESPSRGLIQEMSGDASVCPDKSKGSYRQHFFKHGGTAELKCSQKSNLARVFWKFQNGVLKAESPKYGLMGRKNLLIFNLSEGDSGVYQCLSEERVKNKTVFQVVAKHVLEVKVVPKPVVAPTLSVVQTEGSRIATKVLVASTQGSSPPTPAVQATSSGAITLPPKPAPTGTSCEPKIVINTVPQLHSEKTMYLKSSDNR
Nature of the experiment: ELISA, coated hSEMA4D ECD-His; Ab 0.0107 nM. On the procedure: (§1) First, hSEMA4D ECD-His was diluted with PBS to a final concentration of 1.0 μg/mL, and then was added to a 96-well ELISA plate, 100 μL per well, sealed with plastic film and incubated overnight at 4° C. On the next day, the plate was washed with a plate washing solution, that is, PBS buffer containing 0.05% (v/v) Tween20, for 4 times, and added with blocking solution, that is, PBS buffer containing 0.05% (v/v) Tween20 and 2% (w/w) BSA, blocked at 37° C. for 1 hour. The blocking solution was poured out and the plate was washed 4 times with the plate washing solution. 100 μL of the purified leading antibodies obtained in Examples 1 and 2 was added to each well. After incubation at 37° C. for 1 hour, the plate was washed 4 times with a plate washing solution. 100 μL of horseradish peroxidase (HRP) labeled secondary antibody (purchased from Sigma) was added at a dilution of 1:10000 to each well, and the plate was incubated at 37° C. for 1 hour, and washed 4 times with a plate washing solution. 100 μL TMB substrate was added to each well, and the plate was incubated at room temperature for 5 minutes, and added with 100 μL stop solution (1.0N HCl) to each well. A microplate reader (SpectraMax M5e, purchased from Molecular Device) was used to read the A450 nm value. […] Wherein, the data in the table was the OD450 nm value.
On the technique in general: ELISA stands for enzyme-linked immunosorbent assay.

Experiment [2] addresses T1, hSEMA4D ECD-His (His-tagged human …). Description: ELISA, coated hSEMA4D ECD-His; Ab 1.33 nM. On the procedure: as §1
For experiment [3], the target named is T2, monkey SEMA4D, full length, on CHO-K1 cells (CHO-K1 cSEMA4D) (monkey).
T2 construct: whole, on cells; also called monkey SEMA4D recombinant cells
Description: FACS, CHO-K1 cSEMA4D cells; Ab 0.0213 nM. The method, then:
(§2) After the cells were counted, they were diluted with PBS to 2×10⁶ cells per milliliter. After washing, 100 μL of diluted and purified leading antibodies was added to each well and the plate was incubated for 1 hour on ice. […] Cells were washed 2 times by centrifugation with FACS buffer. The cells were suspended with 200 μL of FACS buffer, FACS (FACS Verse, purchased from BD) was used to detect and analyze the results.

The target of experiment [4] is T2, monkey SEMA4D, full length, on CHO-K1 …. Nature of the experiment: FACS, CHO-K1 cSEMA4D cells; Ab 0.534 nM. On the procedure: as §2
(In general: A flow cytometer gives signals particle by particle.)

B1: 37F11F9 (antibody, V domains shown)
VH: EVQLQQSGPVLVKPGASVKMSCKASGYTFTDYYMNWVKQSHGKSLEWIGLINPYSGGSTFNQKFKAKATLTVDKSSSSAYMDLNSLTSEDSAVYYCARVGDGYYGVTHGMDYWGQGTSVTVSS
VL: DIVMTPSQKFMSTTVGDRVSITCKASQNVGTAVAWYQQKPGQSPTILIYSASNRYTGVPDRFTGSGSGTDFTLTISNMKSEDLADYFCQQYYIYPFTFAAGTKLELK
notes: Mouse monoclonal antibody purified from hybridoma supernatant on protein A
Turning to B1, the OD450 nm worked out at 0.131 in experiment [1] and 1.39 in experiment [2]. Also, the MFI in experiment [3] turned out to be 103; in experiment [4] it was 925.

B2: 32C8F10 (antibody, V domains shown)
VH: EVQLQQSGAELVRPGASVKLSCTASGFNIKDEYIHWVKQRPEQGLEWIGWIDPANGHTEYASRFQAKATITADTSSNTAYLQLSSLTSEDTAVYYCTTGDYDGFAYWGQGTLVTVST
VL: QIVLTQSPAIMSASPGEKVTISCSARSSVSYMYWYQQKPGSSPKPWIYRTSNLASGVPARFSGSGSGTSYSLTISSMEAEDAATYYCQHYHTYPYTFGGGTKLEIK
notes: as for B1
With B2, the results for the OD450 nm in experiment [1] and in experiment [2] were 0.207 and 1.87, respectively. The MFI was 291 in experiment [3] and 2930 in experiment [4].

B3: 31G10C5 (antibody, V domains shown)
VH: EVQLQQSGAELVRPGASVKLSCTASGFNIKDDYIHWVKQRPEQGLEWIGWIDPANGHIEYASNFQAKATITADTSSNTAYLQLSSLTSEDTAVYYCTTGDYDGFTYWGQGTLVTVST
VL: QIVLTQSPAIMSASPGEKVTISCSARSSVSYMYWYQQKPGSSPKPWIYRTSNLASGVPARFSGSGSGTSYSLTISSMEAEDAATYYCQHYHTYPYTFGGGTKLEIK
notes: as for B1
On to B3, for which the results for the OD450 nm in experiment [1] and in experiment [2] were 0.197 and 1.52, respectively. Moreover, the MFI was 414 in experiment [3] and 3490 in experiment [4].

B4: 31C11G2 (antibody, V domains shown)
VH: EVQLQQSGAELVRPGASVKLSCTASGFNIKDEYIHWVKQRPEQGLEWIGWIDPANGHTEYASRFQAKATITADTSSNTAYLQLSSLTSEDTAVYYCTTGDYDGFVYWGQGTLVTVST
VL: QIVLTQSPAIMSASPGEKVTIFCSARSSVSYMYWYQQKPGSSPKPWIYRTSNLASGVPARFSGSGSGTSYSLTISSMEAEDAATYYCQHYHTYPYTFGGGTKLEIK
notes: as for B1
B4: the figures for the OD450 nm in experiment [1] and in experiment [2] were 0.337 and 1.67, respectively. Besides, the MFI in experiment [3] is 422; in experiment [4] it was 2980.

B5: 42B7G2 (antibody, V domains shown)
VH: QVQLQQSGAELARPGASVKLSCKASGYTFTDYGISWVKQRTGQGLEWIGEIYLRNDNSYYNEKFKGKATLTADKSSNTAYMELRSLTSEDSAVYFCARWGDHGNNYEDAMDYWGQGTSVTVSS
VL: DIVLTQSPASLAMSLGKRATISCRASESVSIIGSNLIHWYQQKPGQPPKLLIYHASNLETGVPARFSGSGSRTDFTLTIDPVEEDDVAIYYCLQSRKVPYTFGGGTKLEIK
notes: as for B1
Turning to B5, the OD450 nm in experiment [1] was 0.25; in experiment [2] it was 1.87. The MFI was determined as 216 in experiment [3] and 1690 in experiment [4].

B6: 37C4F7 (antibody, V domains shown)
VH: EFQLQQSGPEVVKPGASVKISCKASGYSFTDYNMNWMKQSKGKSLEWIGVINPNYGTTTYNQNFKGKATLTVDQSSSTAYMQLNSLTSEDSAVYYCARDMYYVYAYYTMDYWGQGTSVTVSS
VL: DVVMTQTPLSLPVSLGDQASISCRSSQSLVHSNGHTYLHWYLQRPGQSPTLLIYKVSNRFSGVPDRFSGSGSGTDFTLKISRVEAEDLGVYFCSQGTHVPWTFGGGTKLEIK
notes: as for B1
Turning to B6, the OD450 nm turned out to be 0.0864 in experiment [1] and 0.91 in experiment [2]. In addition, the MFI in experiment [3] worked out at 79.4; in experiment [4], 760.

B7: 38H2E3 (antibody, V domains shown)
VH: EFQLQQSGPEVVKPGASVKISCKASGYSFTDYNMNWMKQSKGKSLEWIGVISPDYGTTTYNQNFKDKATLTVDQSSSTAYMQLNSLTSEDSAVYYCAKDMYYVYAYYTMDYWGHGTSVTVSS
VL: DVVMTQTPLSLPVSLGDQASISCRSSQSLVHSNGHTYLHWYLQRPGQSPTLLIYKVSNRFSGVPDRVSGSGSGTDFTLKISRVEAEDLGVYFCSQGTHVPRTFGGGTKLEIK
notes: as for B1
For the molecule B7, the OD450 nm was determined as 0.0878 in experiment [1] and 1.1 in experiment [2]. The MFI in experiment [3] stood at 69.1; in experiment [4], 601.
